Experimental data: patent US20110065649A1 (CENTRE NATIONAL DE LA RECHERCHE SCIENTIFIQUE CNRS, published 2011)
Square brackets hold non-standard residues; d marks the D form. Ends that are not written are not given here. KΨPR = pseudopeptide unit Lys-Ψ(CH2-N)-Pro-Arg; Aib = CC(C)(N)C(=O)O

Biological target: surface nucleolin on human cells (human, UniProt P19338 2-710)
Test: cell-based or functional assay

Sequence of surface nucleolin on human cells (P19338 2-710): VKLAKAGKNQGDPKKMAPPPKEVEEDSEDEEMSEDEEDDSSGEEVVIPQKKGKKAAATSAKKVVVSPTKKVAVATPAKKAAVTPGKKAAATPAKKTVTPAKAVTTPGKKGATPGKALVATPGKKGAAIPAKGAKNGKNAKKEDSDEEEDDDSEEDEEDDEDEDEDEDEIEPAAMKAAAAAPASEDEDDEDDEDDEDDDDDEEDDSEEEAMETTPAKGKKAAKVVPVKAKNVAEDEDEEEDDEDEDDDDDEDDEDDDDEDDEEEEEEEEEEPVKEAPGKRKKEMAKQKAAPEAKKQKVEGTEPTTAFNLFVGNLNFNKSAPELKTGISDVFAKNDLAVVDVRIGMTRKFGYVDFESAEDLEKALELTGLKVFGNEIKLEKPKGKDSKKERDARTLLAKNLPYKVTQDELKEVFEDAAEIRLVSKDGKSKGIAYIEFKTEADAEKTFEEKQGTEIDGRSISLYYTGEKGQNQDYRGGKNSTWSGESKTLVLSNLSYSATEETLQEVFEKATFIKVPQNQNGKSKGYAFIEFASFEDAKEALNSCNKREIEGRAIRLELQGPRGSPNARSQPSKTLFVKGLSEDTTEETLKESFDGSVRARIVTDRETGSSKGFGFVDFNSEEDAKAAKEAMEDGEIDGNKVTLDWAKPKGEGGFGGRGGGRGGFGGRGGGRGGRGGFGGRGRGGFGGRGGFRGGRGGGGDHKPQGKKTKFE

ID50 (Inhibitory Dose at 50%) of surface nucleolin activity in HeLa P4 cells: < 0.1 µM
B1: hexavalent compound Nucant 6 (peptide)
chain: Ac-K(KΨPR)[Aib]GK(KΨPR)[Aib]GK(KΨPR)[Aib]GK(KΨPR)[Aib]GK(KΨPR)[Aib]GK(KΨPR)[Aib]G-NH2
peptide: Lys-Pro-Arg
modifications: also: chain 2 is the KΨPR unit, one copy bound via its C-terminus as amide on the ε-amine of each of the 6 Lys of chain 1, reduced bond Ψ(CH2-N) between K and P of chain 2
